Laboratory results as given in patent US6528295.

Target: Protein Phosphatase Methylesterase-1 (PME-1), endogenous protein of NIH3T3 cells (mouse) (UniProt Q8BVQ5)
Assay: anti-HA co-immunoprecipitation, silver-stained 2D gel

Sequence of Protein Phosphatase Methylesterase-1 (PME-1), endogenous protein of NIH3T3 cells (mouse) (Q8BVQ5 whole entry): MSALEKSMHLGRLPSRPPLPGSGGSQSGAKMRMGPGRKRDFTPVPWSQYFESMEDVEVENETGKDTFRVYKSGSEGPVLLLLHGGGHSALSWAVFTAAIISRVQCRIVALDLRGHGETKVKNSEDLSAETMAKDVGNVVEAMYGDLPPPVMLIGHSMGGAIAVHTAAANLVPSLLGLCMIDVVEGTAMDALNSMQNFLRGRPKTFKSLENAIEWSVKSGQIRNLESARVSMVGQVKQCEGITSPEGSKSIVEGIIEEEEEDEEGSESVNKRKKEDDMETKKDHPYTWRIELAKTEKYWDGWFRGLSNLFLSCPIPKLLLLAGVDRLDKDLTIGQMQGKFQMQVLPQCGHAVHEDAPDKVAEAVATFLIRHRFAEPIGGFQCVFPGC

stoichiometry of PME-1 to the A and C subunits in the immunoprecipitate: 1
Substance: HA-tagged PP2A C subunit mutant H118Q (from UniProt P67775 1-309) (enzyme)
